From article PMC9092470, “Understanding p300-transcription factor interactions using sequence variation and hybridization†” (RSC Chemical Biology, 2022) come the findings set out here.

For orientation: Kd means the constant that tells how readily two partners part at equilibrium. Read a low Kd as higher affinity.

Test [1] deals with GST-p300 (p300 CH1 domain, residues 330–420) (Homo sapiens, UniProt Q09472). The test can be described thus: Fluorescence anisotropy direct titration of GFP-HIF-1α776–826 variants with GST-p300. In kind it is binding. The conditions noted are these: 50 nM GFP-HIF-1α776–826 variant, GST-p300 serial dilution, 25 mM Tris–HCl, 150 mM NaCl, 1 mM DTT, pH 7.4, 27 °C, 1:1 model, ± standard error of fitted value, technical triplicates. The text has this: To experimentally compare the predictions, we carried out an in vitro biophysical study of several HIF-1α sequence variants. We assessed predicted hot residues and their interactions with p300 using the NMR structure to visualize the structural basis behind the predictions (See ESI, ^† Fig. S2). These analyses helped refine a first series of alanine variants to prepare. […] HIF-1α776–826 sequence variants were recombinantly prepared based on the predictions to test their binding to the recombinantly prepared p300 (Fig. 2). Given the length of the peptide ([…]), this was considered advantageous as it obviates the need to chemically synthesise, label and purify multiple variants. As the C-TAD domain is unstructured in isolation it was recombinantly expressed as a fusion protein with GFP. The green-fluorescent protein (GFP) tag was used for fluorescence anisotropy (FA) experiments to determine the binding affinity of HIF-1α776–826 C-TAD variants to p300. As the CH1 domain of p300 is a small domain of 11 kDa it was recombinantly expressed as a fusion protein with GST to increase its size and thus the signal to noise in the FA experiments. We established an assay where the interaction between GFP-tagged wt HIF-1α776–826 and GST-tagged p300 was monitored by FA, using the fluorescence of GFP. GST dimerises with single digit nM Kd[61] (and in our hands exists as a dimer in size exclusion chromatography analyses, see ESI, ^† Fig. S15 for protein characterization data), thus two molecules of GFP-HIF-1α could bind to the GST-p300 dimer (Fig. 2a). We make the assumption that each p300 binding site behaves independently and analyse the binding isotherm using a 1 : 1 model.
Sequence of GST-p300 (p300 CH1 domain, residues 330–420) (Q09472 330-420): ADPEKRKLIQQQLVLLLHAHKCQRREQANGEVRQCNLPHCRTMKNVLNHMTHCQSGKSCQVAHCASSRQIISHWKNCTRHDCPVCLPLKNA
(§1) Fig. 2 Biophysical analyses on the effects of HIF-1α sequence variant p300 binding affinity. (a) schematic depicting the equilibrium for interaction of GFP-HIF-1α776–826 variants and GST-p300 as studied by fluorescence anisotropy; (b) representative fluorescence anisotropy titration data for sAV and mAV GFP-HIF-1α776–826 peptides interacting with GST-p300 (25 mM Tris–HCl, 150 mM NaCl, 1 mM DTT, pH 7.4), error bars represent standard deviation of technical triplicates; (c) raw ITC data (upper) and fitted thermogram (lower) for the interaction of GFP-HIF-1α776–826 peptides with p300 (37 °C in 25 mM Tris–HCl, 150 mM NaCl, 1 mM DTT, pH 7.4) using 10 μM p300 in the cell and 100 μM GFP-HIF-1α776–826 variant in the syringe; error bars represent estimated integration errors (d) thermodynamic signatures for each interaction. […]
7.4 buffer or dialysed into 25 mM Tris, 150 mM NaCl, 1 mM DTT pH 7.4 buffer.
GSTp300 protein was serially diluted in buffer (25 mM Tris-HCl, 150 mM NaCl, 1mM DTT, pH 7.4) and GFP-HIF-1α (50nM final concentration) was added, the plates were read after 0 min, 60 min, 4 h and 24 h, and incubated at room temperature in between. Each experiment was run in triplicate and the fluorescence anisotropy measured using an EnVision 2103 MultiLabel plate reader (Perkin Elmer) with excitation at 480 nm and emission at 535 nm (30 nm bandwidths). The recorded temperature for all measurements was 27°C ± 1°C. In parallel, a control experiment was performed in which no GFP-HIF was added and the volume made up with additional buffer, this blank was deducted from the raw data for each of the three repeats.
The intensity was calculated for each point using eqn (1) and used to calculated anisotropy […]
using eqn (2). From a plot of anisotropy against GST-p300 concentration the minimum and maximum anisotropies were obtained using a logistic sigmoidal fit in OriginPro 8.6. This allowed the conversion to fraction bound (eqn (3)). The data were then fitted using eqn (4) in OriginPro 8.6 to determine the dissociation constant, Kd. […]
5 µl injections and 180 s spacing between injections, for 40 injections. Titrations were performed in 40 mM Na-phosphate, pH 7.5 100 mM NaCl, 1 mM DTT buffer except for GFP- […]
(In general: Polarisation of emitted light reports the rotation of a fluorescent probe.)

Test [2] concerns the target T1, p300 (CH1 domain, residues 330–420) (Homo sapiens, UniProt Q09472).
T1 construct: GST (N, cleaved yes); made in house; host or cells: E. coli BL21 pLysS (pGEX-4T1-p300)
The test can be described thus: ITC of GFP-HIF-1α776–826 variants binding to p300. The conditions noted are these: 37 °C, 25 mM Tris–HCl, 150 mM NaCl, 1 mM DTT, pH 7.4, 10 μM p300 in cell, 100 μM variant in syringe; for ΔH: 68% confidence interval in brackets. As to the method:
as §1
Error bars represent standard deviation of technical triplicates.
Figure S5 Heat of dilution of (a) GFP titrated to buffer, (b) GFP titrated to p300 and (c) Raw ITC (upper) data and fitted thermogram (lower) for the interaction of GFP-HIF-1α776-826 D823A variant (37 °C in 25 mM Tris-HCl, 150 mM NaCl, 1mM DTT, pH 7.4) using 10 µM p300 in the cell and 100 µM HIF-1α variant in the syringe. ITC experiments were carried out using a Microcal ITC200i instrument (Malvern). All proteins were dialysed against the same buffer prior to experiment, buffer or 10 µM p300 was present in the cell and titrated with 100 µM GFP-HIF-1α or GFP loaded into the syringe using 16 x 2 μL injections with 120 s spacing between the injections. Heats of GFP or GFP-HIF-1α dilution were subtracted from the measurement raw data. Error bars represent the estimated integration errors. […]
Isothermal titration calorimetry
Prior to ITC measurement p300 CH1 was dialysed or run on S75 column in the buffer used for titration, and the same buffer was used to dissolve the pure peptides. Experiments with […]
MicroCal iTC200 instrument with 10 µM protein in the cell and 100 µM ligand in the syringe at 37°C, using 2 µl injections and 120 or 180 s spacing between injections. Experiments with the […]
instrument using 3-5 µM protein in the cell and 40-60 µM ligand in the syringe at 35°C, using 5 µl injections and 180 s spacing between injections, for 40 injections. Titrations were performed in 40 mM Na-phosphate, pH 7.5 100 mM NaCl, 1 mM DTT buffer except for GFP-HIF-1α and variants for which 25 mM Tris-HCl, 150 mM NaCl, 1mM DTT, pH 7.4 buffer was used. Data were analysed using NITPIC3 and fitted using SEDPHAT4 to a single binding site model (fixed 1:1 stoichiometry), with baseline and incompetent protein fraction as adjustable parameters. 68 % confidence intervals for the fitted values were determined using the automatic confidence interval search implemented in SEDPHAT. Figures were prepared using […]

The target of test [3] is T2, p300 CH1 domain (residues 330–420) (UniProt Q09472 330-420).
T2 construct: p300 CH1 domain, residues 330–420; The cleavage of GST is said for the anisotropy control; also called p300 with the GST tag cleaved; source: recombinantly expressed as a fusion protein with GST, GST tag cleaved
T2 sequence (Q09472 330-420): as above
Put plainly: ITC; peptide in the syringe, p300 in the cell (Fig. 4: 5 μM protein, 60 μM ligand); 40 mM sodium phosphate, pH 7.5, 100 mM NaCl, 1 mM DTT, 35 °C; single-site model, fixed 1:1 stoichiometry. The following applies: both partners purified. For orientation: Isothermal titration calorimetry measures the heat released or taken up as one component is titrated into another.

In test [4] the target is T2, p300 CH1 domain (residues 330–420). The test can be described thus: ITC; 10 μM p300 in the cell, 100 μM GFP-HIF-1α 776–826 variant in the syringe; 37 °C; 25 mM Tris–HCl, 150 mM NaCl, 1 mM DTT, pH 7.4; fixed 1:1 stoichiometry. The conditions noted are these: both partners purified.
For test [5], the target named is GST-tagged p300 CH1 domain (residues 330–420) (UniProt Q09472). Put plainly: fluorescence polarisation; fluorescence anisotropy by the fluorescence of GFP; GFP-HIF-1α 776–826 variants with GST-p300; 25 mM Tris–HCl, 150 mM NaCl, 1 mM DTT, pH 7.4; 1:1 model, each p300 site of the GST dimer taken as independent.

Where a chain is given by its changes, count along the chain named. Names and notes keep the numbering of the source. No end group written: not given here.

T1 sequence (Q09472 330-420): as above

The molecule “D823A: GFP-HIF-1α776–826 C-TAD single alanine variant D823A ({GFP}-SDLACRLLGQSMDESGLPQLTSYDCEVNAPIQGSRNLLQGEELLRALAQVN; cysteine pairing not given here)” returned a Kd in test [1] of 192 ± 17 nM. Also, in test [2], the ΔS was −12.2 cal mol^−1 K^−1 and the ΔH is -13.0 kcal/mol.
“E801A: GFP-HIF-1α776–826 C-TAD single alanine variant E801A ({GFP}-SDLACRLLGQSMDESGLPQLTSYDCAVNAPIQGSRNLLQGEELLRALDQVN; cysteine pairing not given here)” showed a Kd in test [1] of 227 ± 78 nM. In test [2], this molecule gave a ΔS of −9.5 cal mol^−1 K^−1 and a ΔH of -12.2 kcal/mol.
For the molecule “HIF-1α L792A: GFP-HIF-1α776–826 C-TAD single alanine variant L792A ({GFP}-SDLACRLLGQSMDESGAPQLTSYDCEVNAPIQGSRNLLQGEELLRALDQVN; cysteine pairing not given here)”, in test [2], the ΔS is listed as −14.5 ^a cal mol^−1 K^−1 and the ΔH was −13.6 ^a (−13.9, −13.2) kcal mol^−1.
In turn, “V825A: GFP-HIF-1α776–826 C-TAD single alanine variant V825A ({GFP}-SDLACRLLGQSMDESGLPQLTSYDCEVNAPIQGSRNLLQGEELLRALDQAN; cysteine pairing not given here)” had a dissociation constant Kd in test [1] of 198 ± 37 nM.

B1: CITIF, HIF-1α-CITED2 hybrid sequence, chemically synthesized peptide (peptide)
chain: Ac-DEEVLMSLVIEMGLDRIKELPQLTSYDCEVNAPIQGSRNLLQGEELLRALDQVN-NH2
As for B1, the dH in test [3] was -22.5 kcal/mol.

B2: HIF-1α 786–826, chemically synthesized peptide (peptide, UniProt Q16665 786-826, looked up)
peptide: Ac-SMDESGLPQLTSYDCEVNAPIQGSRNLLQGEELLRALDQVN-NH2
notes: source: synthetic peptide (chemical synthesis, see ESI)
In the case of B2, the dH in test [3] is -25.8 kcal/mol.

B3: HIF-1α 776–826, chemically synthesized peptide (peptide, UniProt Q16665 776-826, looked up)
peptide: Ac-SDLACRLLGQSMDESGLPQLTSYDCEVNAPIQGSRNLLQGEELLRALDQVN-NH2
modifications: cysteine pairing not given here
notes: as for B2
In the case of B3, in test [3], the Kd came to 52.2 nM and the dH was -22.9 kcal/mol.

B4: GFP-tagged wt HIF-1α 776–826 C-TAD (domain or fragment, UniProt Q16665 776-826, looked up)
chain: SDLACRLLGQSMDESGLPQLTSYDCEVNAPIQGSRNLLQGEELLRALDQVN
notes: source: recombinantly expressed as a fusion protein with GFP
Turning to B4, in test [4], binding was put at a Kd of 86 nM and the dH was -17.3 kcal/mol. Further, in test [5], the Kd was found to be 55 nM.

B5: GFP-HIF-1α 776–826 L792A (domain or fragment, UniProt Q16665 776-826, looked up)
chain: B4 chain with L17A
notes: As m3 with the stated change; measured by ITC only; also called HIF-1α L792A; source: recombinantly expressed as a fusion protein with GFP
In the case of B5, in test [4], the affinity, expressed as Kd, was 386 nM and the dH is -13.6 kcal/mol.

B6: GFP-HIF-1α 776–826 E801A (domain or fragment, UniProt Q16665 776-826, looked up)
chain: B4 chain with E26A
notes: As m3 with the stated change; also called HIF-1α E801A; source: recombinantly expressed as a fusion protein with GFP
Regarding B6, the Kd in test [4] came out at 359 nM; in test [5], 227 nM. Also, the dH in test [4] was -12.2 kcal/mol.

B7: GFP-HIF-1α 776–826 D823A (domain or fragment, UniProt Q16665 776-826, looked up)
chain: B4 chain with D48A
notes: As m3 with the stated change; also called HIF-1α D823A; source: recombinantly expressed as a fusion protein with GFP
Turning to B7, the dissociation constant (Kd) in test [4] is 369 nM; in test [5], 192 nM. The molecule further returned a dH in test [4] of -13 kcal/mol.
